Usually Ki stands for a dissociation constant, usually derived from enzyme kinetics or from competition with a known ligand. A higher Ki goes with weaker binding.

First the molecules themselves.
T1: human neuropeptide Y2 receptor (human, UniProt P49146 1-381)
T1 construct: whole, on cells; also called hNPY2 receptor; hNPY2-R
T1 sequence (looked up): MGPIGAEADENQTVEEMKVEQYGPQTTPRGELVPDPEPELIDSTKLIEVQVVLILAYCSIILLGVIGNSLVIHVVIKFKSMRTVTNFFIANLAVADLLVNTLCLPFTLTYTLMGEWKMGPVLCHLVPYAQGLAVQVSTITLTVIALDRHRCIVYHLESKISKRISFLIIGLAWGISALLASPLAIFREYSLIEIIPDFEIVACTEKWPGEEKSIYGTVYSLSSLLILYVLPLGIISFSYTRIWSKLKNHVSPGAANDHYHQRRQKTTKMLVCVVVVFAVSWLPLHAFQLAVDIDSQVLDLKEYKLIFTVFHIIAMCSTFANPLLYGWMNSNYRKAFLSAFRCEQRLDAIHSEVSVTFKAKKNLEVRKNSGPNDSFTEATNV

B1: Compound 9 (peptide)
peptide: Isovaleryl-APEK([AEEA-AEEA-γGlu-C18 diacid])PEEDASPEEIQRYYVELRHYYNWLTRQRY-NH2
SMILES: CC[C@H](C)[C@H](NC(=O)[C@H](CCC(=O)O)NC(=O)[C@H](CCC(=O)O)NC(=O)[C@@H]1CCCN1C(=O)[C@H](CO)NC(=O)[C@H](C)NC(=O)[C@H](CC(=O)O)NC(=O)[C@H](CCC(=O)O)NC(=O)[C@H](CCC(=O)O)NC(=O)[C@@H]1CCCN1C(=O)[C@H](CCCCNC(=O)COCCOCCNC(=O)COCCOCCNC(=O)CC[C@H](NC(=O)CCCCCCCCCCCCCCCCC(=O)O)C(=O)O)NC(=O)[C@H](CCC(=O)O)NC(=O)[C@@H]1CCCN1C(=O)[C@H](C)NC(=O)CC(C)C)C(=O)N[C@@H](CCC(N)=O)C(=O)N[C@@H](CCCNC(=N)N)C(=O)N[C@@H](Cc1ccc(O)cc1)C(=O)N[C@@H](Cc1ccc(O)cc1)C(=O)N[C@H](C(=O)N[C@@H](CCC(=O)O)C(=O)N[C@@H](CC(C)C)C(=O)N[C@@H](CCCNC(=N)N)C(=O)N[C@@H](Cc1c[nH]cn1)C(=O)N[C@@H](Cc1ccc(O)cc1)C(=O)N[C@@H](Cc1ccc(O)cc1)C(=O)N[C@@H](CC(N)=O)C(=O)N[C@@H](Cc1c[nH]c2ccccc12)C(=O)N[C@@H](CC(C)C)C(=O)N[C@H](C(=O)N[C@@H](CCCNC(=N)N)C(=O)N[C@@H](CCC(N)=O)C(=O)N[C@@H](CCCNC(=N)N)C(=O)N[C@@H](Cc1ccc(O)cc1)C(N)=O)[C@@H](C)O)C(C)C
B2: Compound 13 (peptide)
peptide: Isovaleryl-APEK([AEEA-AEEA-γGlu-C18 diacid])PEEDAAPEELQQYYVSLRHYYNWLTRQRY-NH2
SMILES: CC(C)CC(=O)N[C@@H](C)C(=O)N1CCC[C@H]1C(=O)N[C@@H](CCC(=O)O)C(=O)N[C@@H](CCCCNC(=O)COCCOCCNC(=O)COCCOCCNC(=O)CC[C@H](NC(=O)CCCCCCCCCCCCCCCCC(=O)O)C(=O)O)C(=O)N1CCC[C@H]1C(=O)N[C@@H](CCC(=O)O)C(=O)N[C@@H](CCC(=O)O)C(=O)N[C@@H](CC(=O)O)C(=O)N[C@@H](C)C(=O)N[C@@H](C)C(=O)N1CCC[C@H]1C(=O)N[C@@H](CCC(=O)O)C(=O)N[C@@H](CCC(=O)O)C(=O)N[C@@H](CC(C)C)C(=O)N[C@@H](CCC(N)=O)C(=O)N[C@@H](CCC(N)=O)C(=O)N[C@@H](Cc1ccc(O)cc1)C(=O)N[C@@H](Cc1ccc(O)cc1)C(=O)N[C@H](C(=O)N[C@@H](CO)C(=O)N[C@@H](CC(C)C)C(=O)N[C@@H](CCCNC(=N)N)C(=O)N[C@@H](Cc1c[nH]cn1)C(=O)N[C@@H](Cc1ccc(O)cc1)C(=O)N[C@@H](Cc1ccc(O)cc1)C(=O)N[C@@H](CC(N)=O)C(=O)N[C@@H](Cc1c[nH]c2ccccc12)C(=O)N[C@@H](CC(C)C)C(=O)N[C@H](C(=O)N[C@@H](CCCNC(=N)N)C(=O)N[C@@H](CCC(N)=O)C(=O)N[C@@H](CCCNC(=N)N)C(=O)N[C@@H](Cc1ccc(O)cc1)C(N)=O)[C@@H](C)O)C(C)C
B3: Compound 15 (peptide)
peptide: Isovaleryl-APEK([AEEA-AEEA-γGlu-C18 diacid])PEEDASPEEIQRYEVSLRHYYNWLTRQRY-NH2
SMILES: CC[C@H](C)[C@H](NC(=O)[C@H](CCC(=O)O)NC(=O)[C@H](CCC(=O)O)NC(=O)[C@@H]1CCCN1C(=O)[C@H](CO)NC(=O)[C@H](C)NC(=O)[C@H](CC(=O)O)NC(=O)[C@H](CCC(=O)O)NC(=O)[C@H](CCC(=O)O)NC(=O)[C@@H]1CCCN1C(=O)[C@H](CCCCNC(=O)COCCOCCNC(=O)COCCOCCNC(=O)CC[C@H](NC(=O)CCCCCCCCCCCCCCCCC(=O)O)C(=O)O)NC(=O)[C@H](CCC(=O)O)NC(=O)[C@@H]1CCCN1C(=O)[C@H](C)NC(=O)CC(C)C)C(=O)N[C@@H](CCC(N)=O)C(=O)N[C@@H](CCCNC(=N)N)C(=O)N[C@@H](Cc1ccc(O)cc1)C(=O)N[C@@H](CCC(=O)O)C(=O)N[C@H](C(=O)N[C@@H](CO)C(=O)N[C@@H](CC(C)C)C(=O)N[C@@H](CCCNC(=N)N)C(=O)N[C@@H](Cc1c[nH]cn1)C(=O)N[C@@H](Cc1ccc(O)cc1)C(=O)N[C@@H](Cc1ccc(O)cc1)C(=O)N[C@@H](CC(N)=O)C(=O)N[C@@H](Cc1c[nH]c2ccccc12)C(=O)N[C@@H](CC(C)C)C(=O)N[C@H](C(=O)N[C@@H](CCCNC(=N)N)C(=O)N[C@@H](CCC(N)=O)C(=O)N[C@@H](CCCNC(=N)N)C(=O)N[C@@H](Cc1ccc(O)cc1)C(N)=O)[C@@H](C)O)C(C)C
B4: Compound 16 (peptide)
peptide: Isovaleryl-APEK([AEEA-AEEA-γGlu-C18 diacid])PEEDASPEETQRYYVTLRHYYNWLTRQRY-NH2
SMILES: CC(C)CC(=O)N[C@@H](C)C(=O)N1CCC[C@H]1C(=O)N[C@@H](CCC(=O)O)C(=O)N[C@@H](CCCCNC(=O)COCCOCCNC(=O)COCCOCCNC(=O)CC[C@H](NC(=O)CCCCCCCCCCCCCCCCC(=O)O)C(=O)O)C(=O)N1CCC[C@H]1C(=O)N[C@@H](CCC(=O)O)C(=O)N[C@@H](CCC(=O)O)C(=O)N[C@@H](CC(=O)O)C(=O)N[C@@H](C)C(=O)N[C@@H](CO)C(=O)N1CCC[C@H]1C(=O)N[C@@H](CCC(=O)O)C(=O)N[C@@H](CCC(=O)O)C(=O)N[C@H](C(=O)N[C@@H](CCC(N)=O)C(=O)N[C@@H](CCCNC(=N)N)C(=O)N[C@@H](Cc1ccc(O)cc1)C(=O)N[C@@H](Cc1ccc(O)cc1)C(=O)N[C@H](C(=O)N[C@H](C(=O)N[C@@H](CC(C)C)C(=O)N[C@@H](CCCNC(=N)N)C(=O)N[C@@H](Cc1c[nH]cn1)C(=O)N[C@@H](Cc1ccc(O)cc1)C(=O)N[C@@H](Cc1ccc(O)cc1)C(=O)N[C@@H](CC(N)=O)C(=O)N[C@@H](Cc1c[nH]c2ccccc12)C(=O)N[C@@H](CC(C)C)C(=O)N[C@H](C(=O)N[C@@H](CCCNC(=N)N)C(=O)N[C@@H](CCC(N)=O)C(=O)N[C@@H](CCCNC(=N)N)C(=O)N[C@@H](Cc1ccc(O)cc1)C(N)=O)[C@@H](C)O)[C@@H](C)O)C(C)C)[C@@H](C)O
B5: Compound 10 (peptide)
peptide: Isovaleryl-APEK([AEEA-AEEA-γGlu-C18 diacid])PEADASPEETQRYYVSLRHYYNWLTRQRY-NH2
SMILES: CC(C)CC(=O)N[C@@H](C)C(=O)N1CCC[C@H]1C(=O)N[C@@H](CCC(=O)O)C(=O)N[C@@H](CCCCNC(=O)COCCOCCNC(=O)COCCOCCNC(=O)CC[C@H](NC(=O)CCCCCCCCCCCCCCCCC(=O)O)C(=O)O)C(=O)N1CCC[C@H]1C(=O)N[C@@H](CCC(=O)O)C(=O)N[C@@H](C)C(=O)N[C@@H](CC(=O)O)C(=O)N[C@@H](C)C(=O)N[C@@H](CO)C(=O)N1CCC[C@H]1C(=O)N[C@@H](CCC(=O)O)C(=O)N[C@@H](CCC(=O)O)C(=O)N[C@H](C(=O)N[C@@H](CCC(N)=O)C(=O)N[C@@H](CCCNC(=N)N)C(=O)N[C@@H](Cc1ccc(O)cc1)C(=O)N[C@@H](Cc1ccc(O)cc1)C(=O)N[C@H](C(=O)N[C@@H](CO)C(=O)N[C@@H](CC(C)C)C(=O)N[C@@H](CCCNC(=N)N)C(=O)N[C@@H](Cc1c[nH]cn1)C(=O)N[C@@H](Cc1ccc(O)cc1)C(=O)N[C@@H](Cc1ccc(O)cc1)C(=O)N[C@@H](CC(N)=O)C(=O)N[C@@H](Cc1c[nH]c2ccccc12)C(=O)N[C@@H](CC(C)C)C(=O)N[C@H](C(=O)N[C@@H](CCCNC(=N)N)C(=O)N[C@@H](CCC(N)=O)C(=O)N[C@@H](CCCNC(=N)N)C(=O)N[C@@H](Cc1ccc(O)cc1)C(N)=O)[C@@H](C)O)C(C)C)[C@@H](C)O
B6: Compound 14 (peptide)
peptide: Isovaleryl-APEK([AEEA-AEEA-γGlu-C18 diacid])PEADATPEELQRYYVSLRHYYNWLTRQRY-NH2
SMILES: CC(C)CC(=O)N[C@@H](C)C(=O)N1CCC[C@H]1C(=O)N[C@@H](CCC(=O)O)C(=O)N[C@@H](CCCCNC(=O)COCCOCCNC(=O)COCCOCCNC(=O)CC[C@H](NC(=O)CCCCCCCCCCCCCCCCC(=O)O)C(=O)O)C(=O)N1CCC[C@H]1C(=O)N[C@@H](CCC(=O)O)C(=O)N[C@@H](C)C(=O)N[C@@H](CC(=O)O)C(=O)N[C@@H](C)C(=O)N[C@H](C(=O)N1CCC[C@H]1C(=O)N[C@@H](CCC(=O)O)C(=O)N[C@@H](CCC(=O)O)C(=O)N[C@@H](CC(C)C)C(=O)N[C@@H](CCC(N)=O)C(=O)N[C@@H](CCCNC(=N)N)C(=O)N[C@@H](Cc1ccc(O)cc1)C(=O)N[C@@H](Cc1ccc(O)cc1)C(=O)N[C@H](C(=O)N[C@@H](CO)C(=O)N[C@@H](CC(C)C)C(=O)N[C@@H](CCCNC(=N)N)C(=O)N[C@@H](Cc1c[nH]cn1)C(=O)N[C@@H](Cc1ccc(O)cc1)C(=O)N[C@@H](Cc1ccc(O)cc1)C(=O)N[C@@H](CC(N)=O)C(=O)N[C@@H](Cc1c[nH]c2ccccc12)C(=O)N[C@@H](CC(C)C)C(=O)N[C@H](C(=O)N[C@@H](CCCNC(=N)N)C(=O)N[C@@H](CCC(N)=O)C(=O)N[C@@H](CCCNC(=N)N)C(=O)N[C@@H](Cc1ccc(O)cc1)C(N)=O)[C@@H](C)O)C(C)C)[C@@H](C)O

*1 amine or outer side, *2 acyl side, *3 side chain or, on linkers, in order; H or OH if unused. Side-chain parts run from the residue outwards. The star is where a group is joined. C18 diacid = O=C(O)CCCCCCCCCCCCCCCCC(=O)*; γGlu = O=C(O)[C@H](CCC(=O)[*:2])N[*:1]; Isovaleryl = CC(C)CC(=O)*; AEEA = NCCOCCOCC(=O)O

The assay concerns the target T1, human neuropeptide Y2 receptor. The experiment in a line: radioligand competition (125I-PYY(1-36)), hNPY2R membranes. As for the experimental part:
The filtration RLB assay was carried out in 96-well plates in a final volume of 100 μl per well. Freeze-dried test peptides were dissolved in 100% dimethyl sulfoxide (DMSO) to stock solutions of 1 mM and serial dilutions were performed in assay buffer (50 mM HEPES, 5 mM MgCl₂, 1 mM CaCl₂, pH 7.4) containing 0.2% ovalbumin. […] Next, 80 μL membranes (HTS066M, ChemiSCREEN™ Human Neuropeptide Y2 Receptor Membrane Preparation, CHEMICON) were added to each well to give a final protein concentration of 0.5 μg/well. The plates were sealed and incubated at room temperature for 2 hours in a plate shaker set at 400 rpm. The incubation was stopped by vacuum filtration onto 0.5% poly-ethylene amine (PEI) presoaked GF/C filters using a 96-well FilterMate™ harvester (Perkin Elmer) followed by four washes with 300 μl/well ice-cold wash buffer (50 mM HEPES, 500 mM NaCl, pH7.4). Filter plates were then dried for 60 min at room temperature and the bottom of the plates was sealed with backing tape UniFilter-96. Finally, 50 μl/well scintillation counter cocktail (Microscint20, Packard) was added and the radioactivity was counted in the Packard TopCount NXT scintillation counter. IC₅₀ values (the half maximal inhibitory concentration of the agonist) were calculated by nonlinear regression analysis of sigmoidal dose-response curves.
Background: Loss of bound radioactivity is the signal in a displacement assay; it reports binding, not function.
In turn, B1 came in with a Ki of 1.22 nM. On to B2, for which the Ki worked out at 1.29 nM.

B3 gave a Ki of 2.89 nM. In turn, B4 displayed a Ki of 3.09 nM.

With B5, the Ki stood at 1.28 nM. To B6 belongs 0.31 nM.
